Laboratory results reported in paper doi:10.1101/2021.07.28.454137.
Like-named read-outs stand apart in the source and are kept apart here.

Experiments:
[1] = biological target: human LonP1 T803V mutant, amino acids 125 to 959 (human) (UniProt P36776)
[2] = biological target: human mitochondrial Lon protease homolog (LonP1), wild-type, amino acids 125 to 959 (human) (UniProt P36776); test: cryo-EM structure
[3] = biological target: human mitochondrial Lon protease homolog (LonP1), wild-type, amino acids 125 to 959 (human) (UniProt P36776); test: cryo-EM structure; remark: listed apart in the source

Substance | ATPase activity relative to wild-type LonP1 [1] | stoichiometry N [2] | stoichiometry N [3]
human LonP1 T803V mutant, amino acids 125 to 959 (from UniProt P36776 125-959) (enzyme) | 50% |  | 
human mitochondrial Lon protease homolog (LonP1), wild-type, amino acids 125 to 959 (from UniProt P36776 125-959) (enzyme) |  | 6 | 6
